Reference: PMC7450108, “Pterocarpan synthase (PTS) structures suggest a common quinone methide–stabilizing function in dirigent proteins and proteins with dirigent-like domains” (The Journal of Biological Chemistry, 2020)

Assays:
[1] = tested on: COc1ccc([C@H]2COc3cc(O)ccc3[C@@H]2O)c(O)c1; experiment: medicarpin formation, chiral HPLC (RU-2); type: biochemical, Glycyrrhiza echinata; details: 0.1 M sodium phosphate pH 6.6, 30 °C, 5 min, BSA, racemic trans-DMI supplied
From the text: (§1) medicarpin formation, chiral HPLC (RU-2) on GePTS1

[2] = tested on: COc1ccc([C@@H]2COc3cc(O)ccc3[C@@H]2O)c(O)c1; experiment: medicarpin formation, chiral HPLC (RU-2); type: biochemical, Glycyrrhiza echinata; details: 0.1 M sodium phosphate pH 6.6, 30 °C, 5 min, BSA, racemic cis-DMI supplied
From the text: as §1

[3] = tested on: COc1ccc([C@H]2COc3cc(O)ccc3[C@@H]2O)c(O)c1; experiment: purified protein; details: 0.1 M sodium phosphate pH 6.6, 30 °C, 5 min, BSA, racemic trans-DMI supplied, kinetics calculated on (3S,4R) conversion
[4] = tested on: COc1ccc([C@@H]2COc3cc(O)ccc3[C@@H]2O)c(O)c1; experiment: purified protein; details: 0.1 M sodium phosphate pH 6.6, 30 °C, 5 min, BSA, racemic cis-DMI supplied, kinetics calculated on (3R,4R) conversion
[5] = kinetics calculated on (3S,4R) conversion
[6] = kinetics calculated on (3R,4R) conversion
[7] = (3S,4R) converted, pET100 construct
[8] = (3R,4R) converted, pET100 construct

## GePTS1 (Glycyrrhiza echinata)
[1]; [5]
  Km: 680 µM
  kcat: 15.9 s⁻¹
  kcat/Km: 23400 M⁻¹ s⁻¹
[2]; [6]
  Km: 145 µM
  kcat: 59.9 s⁻¹
  kcat/Km: 413000 M⁻¹ s⁻¹

## GePTS1 (Glycyrrhiza echinata; D50A)
[1]; [7]
  Km: 520 µM
  kcat: 0.2 s⁻¹
  kcat/Km: 370 M⁻¹ s⁻¹
[2]; [8]
  Km: 1,175 μM
  kcat: 4.9 s⁻¹
  kcat/Km: 4180 M⁻¹ s⁻¹

## GePTS1 (Glycyrrhiza echinata; D83A)
[1]; [7]
  Km: 665 µM
  kcat: 1.3 s⁻¹
  kcat/Km: 1960 M⁻¹ s⁻¹
[2]; [8]
  Km: 1,300 μM
  kcat: 6.3 s⁻¹
  kcat/Km: 4870 M⁻¹ s⁻¹

## GePTS1 (Glycyrrhiza echinata; Y103F)
[1]; [7]
  Km: 3,320 μM
  kcat: 5.9 s⁻¹
  kcat/Km: 1830 M⁻¹ s⁻¹
[2]; [8]
  Km: 555 µM
  kcat: 6.9 s⁻¹
  kcat/Km: 12300 M⁻¹ s⁻¹

## GePTS1 (Glycyrrhiza echinata; Y181F)
[1]; [7]
  Km: 5,665 μM
  kcat: 4 s⁻¹
  kcat/Km: 710 M⁻¹ s⁻¹
[2]; [8]
  Km: 825 µM
  kcat: 5.2 s⁻¹
  kcat/Km: 6310 M⁻¹ s⁻¹

## PsPTS1 (Lathyrus oleraceus)
[3]
  Km: 830 µM
  kcat: 3.3 s⁻¹
  kcat/Km: 3930 M⁻¹ s⁻¹
[4]
  Km: 890 µM
  kcat: 50.5 s⁻¹
  kcat/Km: 56800 M⁻¹ s⁻¹
